B1: Human glucosamine-6-sulfatase: human lysosomal glucosamine-6-sulfatase, purchased from Glyko Inc. (protein, UniProt P15586 37-552, looked up)
N-acetylglucosamine-6-sulfatas …: VFGVAAGTRRPNVVLLLTDDQDEVLGGMTPLKKTKALIGEMGMTFSSAYVPSALCCPSRASILTGKYPHNHHVVNNTLEGNCSSKSWQKIQEPNTFPAILRSMCGYQTFFAGKYLNEYGAPDAGGLEHVPLGWSYWYALEKNSKYYNYTLSINGKARKHGENYSVDYLTDVLANVSLDFLDYKSNFEPFFMMIATPAPHSPWTAAPQYQKAFQNVFAPRNKNFNIHGTNKHWLIRQAKTPMTNSSIQFLDNAFRKRWQTLLSVDDLVEKLVKRLEFTGELNNTYIFYTSDNGYHTGQFSLPIDKRQLYEFDIKVPLLVRGPGIKPNQTSKMLVANIDLGPTILDIAGYDLNKTQMDGMSLLPILRGASNLTWRSDVLVEYQGEGRNVTDPTCPSLSPGVSQCFPDCVCEDAYNNTYACVRTMSALWNLQYCEFDDQEVFVEVYNLTADPDQITNIAKTIDPELLGKMNYRLMMLQSCSGPTCRTPGVFDPGYRFDPRLMFSNRGSVRTRRFSKHLL

Legend:
[1] = comparison enzymes; cited from earlier work
[2] = Arylsulfatase activity assay with 4-MUS substrate; assay type: biochemical; conditions: 1 milliunit, 24 hr incubation
Procedure: The 100-fold concentrated conditioned medium (CM) derived from each transfection of CHO cells as described above was dialyzed into 50 mM HEPES, pH 8.0. The His-tagged fusion proteins were bound to a Ni-NTA resin (QIAGEN) by rotation at 4° C. over night, then washed with 50 mM HEPES (pH 8.0), 3 times. 250 mM imidazole in 50 mM HEPES, pH 8.0 was used to elute the His-tagged fusion proteins from Ni-NTA. The resins with boud material or the eluates were mixed with 10 mM 4-methylumbelliferyl-sulfate (4-MUS; a substrate for sulfatases), and 10 mM lead acetate, in a total volume of 100 μl. The reaction mixtures were incubated at 37° C. for various periods of time. Reactions were terminated by the addition of 100 μl of 0.5 M Na2CO3/NaHCO3, pH 10.7 to 20 μl of the reaction mixture. The fluorescence of 4-methylumbelliferone was measured on a Multi-Well Plate Reader CytoFluorII (PerSeptive Biosystems). The fluorescence was determined at an excitation wavelength of 360 nm and emission wavelength of 460 nm. A substrate dose response curve was performed over the concentration range of 1 to 10 mM 4-MUS.
The synthetic fluorogenic compound 4-methylumbelliferyl sulfate (4-MUS) serves as a substrate for most sulfatases, both in the lysosomal and non-lysosomal classes. CHO cells were transfected with a cDNA for HSulf-1 or HSulf-2 or a vector control. Conditioned medium was collected and incubated with nickel resin (Ni-NTA) to bind the His-tagged recombinant proteins. The bead-bound material was assayed for activity on 4-MUS. For both enzymes, hydrolysis depended on time of reaction (FIG. 15A), concentration of substrate (FIG. 15B), and amount of CM (FIG. 15C). From the substrate dose-response curves of FIG. 15B and based on estimates of Sulf protein levels in CM, we approximated Vmax for the two Sulfs to be in the range of 1000-2000 nmol per min per mg of Sulf protein. Human glucosamine-6-sulfatase has a considerably lower Vmax against 4-MUS ([…]) whereas the Vmax of human N-acetylgalactosamine-4-sulfatase (arylsulfatase B) is much higher (48000).
HSulf-1, HSulf-2 or their mutated forms (HSulf-1 ΔCC and HSulf-2 ΔCC) was purified from the conditioned medium of transfected CHO cells by binding to Ni-NTA beads. A) The bead-bound material was tested for arylsulfatase activity as a function of time against 10 mM 4-MUS substrate at pH 8. The “no-enzyme” control was based on testing conditioned medium from vector-control transfected CHO cells. No activity was detected in the absence of added substrate (not shown). […] The activity of each Sulf was determined relative to that of beads exposed to an equivalent volume of vector-control conditioned medium. The activity of HG6S was determined (24 hr incubation) relative to that of the buffer. […]

Molecule | Vmax against 4-MUS [1] [nmol/min/mg] | arylsulfatase activity at pH 5 ([2]; pH 5) | arylsulfatase activity at pH 8 ([2]; pH 8)
human N-acetylgalactosamine-4-sulfatase: human N-acetylgalactosamine-4-sulfatase (arylsulfatase B), comparison enzyme [reference compound] | 48000 |  | 
B1 | 100 | measurable activity | none
